From EP4671282A1 (Jiangsu Hengrui Pharmaceuticals Co., Ltd., dated 2025)
Where two headings read alike, the source gives them in different places.

How the values were obtained:
[1] = molecular target: T1, IL-36R on human skin squamous cell line A431 (human, UniProt Q9HB29 20-575); assay: cell-based or functional assay
T1 sequence (looked up): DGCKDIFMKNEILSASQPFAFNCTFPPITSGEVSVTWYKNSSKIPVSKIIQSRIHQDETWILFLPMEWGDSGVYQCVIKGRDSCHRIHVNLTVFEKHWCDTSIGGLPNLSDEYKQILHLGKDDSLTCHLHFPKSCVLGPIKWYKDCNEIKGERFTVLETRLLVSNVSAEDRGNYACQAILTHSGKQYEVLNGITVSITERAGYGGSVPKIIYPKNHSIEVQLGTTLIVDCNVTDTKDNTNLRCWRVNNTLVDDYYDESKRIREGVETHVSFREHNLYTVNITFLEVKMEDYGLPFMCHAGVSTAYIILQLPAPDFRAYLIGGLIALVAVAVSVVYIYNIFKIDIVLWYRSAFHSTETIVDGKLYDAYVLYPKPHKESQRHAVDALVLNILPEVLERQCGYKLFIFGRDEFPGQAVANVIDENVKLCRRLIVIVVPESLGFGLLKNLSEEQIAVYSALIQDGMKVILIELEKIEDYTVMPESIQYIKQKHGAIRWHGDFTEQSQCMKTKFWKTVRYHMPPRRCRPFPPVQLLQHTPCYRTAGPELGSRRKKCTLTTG

[2] = molecular target: T2, human IL-23 protein (ACROBiosystems, ILB-H52W5) (human, UniProt Q9NPF7 20-189; P29460 23-328); assay: cell-based or functional assay
T2 sequence (looked up) 1: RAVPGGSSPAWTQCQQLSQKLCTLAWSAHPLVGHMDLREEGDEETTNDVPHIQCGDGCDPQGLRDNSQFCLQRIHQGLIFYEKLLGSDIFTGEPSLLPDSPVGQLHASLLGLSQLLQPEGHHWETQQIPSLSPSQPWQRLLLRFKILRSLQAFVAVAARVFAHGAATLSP
T2 sequence (looked up) 2: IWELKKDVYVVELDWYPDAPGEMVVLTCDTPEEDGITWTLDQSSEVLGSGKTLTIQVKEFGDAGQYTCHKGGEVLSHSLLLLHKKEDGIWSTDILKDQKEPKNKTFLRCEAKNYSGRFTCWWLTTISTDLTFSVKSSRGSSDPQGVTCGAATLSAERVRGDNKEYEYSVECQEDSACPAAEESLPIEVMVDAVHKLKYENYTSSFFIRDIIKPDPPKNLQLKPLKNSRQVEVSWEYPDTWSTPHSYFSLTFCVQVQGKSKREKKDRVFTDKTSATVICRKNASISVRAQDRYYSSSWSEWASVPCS

[3] = molecular target: T2, human IL-23 protein (ACROBiosystems, …); assay: cell-based or functional assay; remark: listed apart in the source
[4] = molecular target: T2, human IL-23 protein (ACROBiosystems, …); assay: ELISA, human IL-23 coated
[5] = molecular target: T3, human IL-36R full-length protein stably expressed on CHO-K1 cells (human, UniProt Q9HB29 20-575); assay: FACS, CHO-K1 cells overexpressing human IL-36R
T3 construct: FlpIn CHO-K1 line expressing the full-length protein; also called human IL-36R on the surface of CHO-K1 cells; CHO-K1 cells overexpressing human IL-36R
T3 sequence: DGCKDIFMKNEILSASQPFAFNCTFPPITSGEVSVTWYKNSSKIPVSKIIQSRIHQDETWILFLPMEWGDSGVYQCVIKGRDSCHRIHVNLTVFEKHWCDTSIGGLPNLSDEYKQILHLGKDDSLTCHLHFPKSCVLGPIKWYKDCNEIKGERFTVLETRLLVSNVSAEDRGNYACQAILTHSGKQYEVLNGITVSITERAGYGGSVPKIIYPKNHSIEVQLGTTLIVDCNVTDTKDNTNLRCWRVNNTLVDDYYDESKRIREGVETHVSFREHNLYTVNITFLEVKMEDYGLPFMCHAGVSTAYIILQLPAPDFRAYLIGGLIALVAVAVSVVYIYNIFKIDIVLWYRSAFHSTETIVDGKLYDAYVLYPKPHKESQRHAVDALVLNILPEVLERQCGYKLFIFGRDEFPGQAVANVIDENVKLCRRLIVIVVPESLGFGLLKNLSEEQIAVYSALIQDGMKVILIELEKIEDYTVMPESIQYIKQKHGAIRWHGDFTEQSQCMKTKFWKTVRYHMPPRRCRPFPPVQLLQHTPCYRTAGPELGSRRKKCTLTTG

[6] = molecular target: T2, human IL-23 protein (ACROBiosystems, …); assay: SPR (Biacore 8K), antibody captured by anti-human IgG Fc, IL-23 as analyte
[7] = molecular target: T4, Human IL-36R protein (His + Avi Tag), Kactus IL1-HM4L2 (human, UniProt Q9HB29 20-335); assay: SPR (Biacore 8K), antibody captured by anti-human IgG Fc, IL-36R as analyte
T4 construct: Bought protein; also called human IL-36R antigen protein; Human IL-36R antigen
T4 sequence: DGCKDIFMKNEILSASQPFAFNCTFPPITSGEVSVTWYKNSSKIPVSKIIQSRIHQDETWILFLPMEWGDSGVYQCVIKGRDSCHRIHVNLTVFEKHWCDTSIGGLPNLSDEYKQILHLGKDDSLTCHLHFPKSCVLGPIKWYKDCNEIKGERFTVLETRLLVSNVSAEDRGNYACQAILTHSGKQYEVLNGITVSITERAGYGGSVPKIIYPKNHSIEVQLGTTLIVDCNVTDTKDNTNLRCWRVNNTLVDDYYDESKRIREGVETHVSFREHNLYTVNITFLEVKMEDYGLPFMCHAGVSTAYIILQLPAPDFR

[8] = molecular target: T2, human IL-23 protein (ACROBiosystems, …); assay: cell-based or functional assay; remark: listed apart in the source
[9] = molecular target: T5, Human IL-36R protein (His + Avi Tag, biotinylation), Kactus IL1-HM4L2B (human, UniProt Q9HB29 20-335, biotinylated); assay: phage panning on biotinylated human IL-36R, clone ELISA
T5 construct: Screening antigen of the phage panning; also called biotinylated human IL-36R; human IL-36R antigen (screening antigen)
T5 sequence: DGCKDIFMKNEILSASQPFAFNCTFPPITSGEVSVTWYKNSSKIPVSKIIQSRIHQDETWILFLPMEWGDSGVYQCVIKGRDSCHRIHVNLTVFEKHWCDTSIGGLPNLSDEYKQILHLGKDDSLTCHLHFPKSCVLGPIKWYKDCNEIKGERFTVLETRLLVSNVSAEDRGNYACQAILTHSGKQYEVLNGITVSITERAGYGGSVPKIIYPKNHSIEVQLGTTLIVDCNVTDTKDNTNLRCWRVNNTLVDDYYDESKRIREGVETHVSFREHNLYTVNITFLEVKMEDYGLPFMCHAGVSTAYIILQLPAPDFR

[10] = molecular target: T6, human IL-23 protein (Sino Biological, CT048-H08H) (human, UniProt Q9NPF7 20-189; P29460 23-328); assay: cell-based or functional assay
T6 sequence (looked up) 1: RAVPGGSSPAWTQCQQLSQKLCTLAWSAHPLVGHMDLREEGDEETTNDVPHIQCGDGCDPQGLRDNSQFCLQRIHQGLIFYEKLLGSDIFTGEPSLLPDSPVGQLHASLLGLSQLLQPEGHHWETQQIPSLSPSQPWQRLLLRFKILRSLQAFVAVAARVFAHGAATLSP
T6 sequence (looked up) 2: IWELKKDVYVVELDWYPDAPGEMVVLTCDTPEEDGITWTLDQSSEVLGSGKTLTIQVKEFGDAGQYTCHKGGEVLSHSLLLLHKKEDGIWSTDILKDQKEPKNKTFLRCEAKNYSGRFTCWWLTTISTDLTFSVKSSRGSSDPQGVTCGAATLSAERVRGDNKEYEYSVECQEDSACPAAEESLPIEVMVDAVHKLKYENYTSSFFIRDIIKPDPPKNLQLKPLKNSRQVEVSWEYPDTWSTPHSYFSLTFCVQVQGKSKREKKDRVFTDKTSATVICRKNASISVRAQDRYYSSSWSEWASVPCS

[11] = molecular target: T7, IL-23 (R&D Systems, 1290-IL-010) (UniProt Q9NPF7 20-189; P29460 23-328); assay: cell-based or functional assay
T7 sequence (looked up) 1: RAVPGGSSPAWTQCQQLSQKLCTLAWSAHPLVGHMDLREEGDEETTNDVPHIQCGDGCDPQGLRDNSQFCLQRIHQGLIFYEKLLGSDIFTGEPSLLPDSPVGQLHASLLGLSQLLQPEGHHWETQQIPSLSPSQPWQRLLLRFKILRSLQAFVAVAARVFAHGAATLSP
T7 sequence (looked up) 2: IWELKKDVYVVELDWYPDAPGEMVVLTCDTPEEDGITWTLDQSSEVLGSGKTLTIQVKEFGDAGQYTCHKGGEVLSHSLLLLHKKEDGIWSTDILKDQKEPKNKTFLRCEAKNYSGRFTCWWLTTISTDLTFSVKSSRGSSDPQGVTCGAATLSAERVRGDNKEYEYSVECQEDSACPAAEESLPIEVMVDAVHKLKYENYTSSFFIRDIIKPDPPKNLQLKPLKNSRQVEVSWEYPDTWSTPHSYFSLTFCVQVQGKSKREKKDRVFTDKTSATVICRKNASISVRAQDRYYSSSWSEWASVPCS

[12] = molecular target: T6, human IL-23 protein (Sino Biological, …); assay: ELISA, test sample coated, His-tagged IL-23 in solution
[13] = molecular target: T6, human IL-23 protein (Sino Biological, …); assay: SPR (Biacore 8K), antibody captured on Protein A chip, IL-23 as analyte
[14] = molecular target: T6, human IL-23 protein (Sino Biological, …); assay: competition ELISA, IL-23R coated, biotinylated IL-23 preincubated with antibody

B1: IL-36R-IL-23-01 (anti-IL-36R and anti-IL-23 bispecific antibody, VHH213_Hu07 on Hu29-19, Structure A) (bispecific antibody, human IgG1, kappa, L234A L235A)
heavy: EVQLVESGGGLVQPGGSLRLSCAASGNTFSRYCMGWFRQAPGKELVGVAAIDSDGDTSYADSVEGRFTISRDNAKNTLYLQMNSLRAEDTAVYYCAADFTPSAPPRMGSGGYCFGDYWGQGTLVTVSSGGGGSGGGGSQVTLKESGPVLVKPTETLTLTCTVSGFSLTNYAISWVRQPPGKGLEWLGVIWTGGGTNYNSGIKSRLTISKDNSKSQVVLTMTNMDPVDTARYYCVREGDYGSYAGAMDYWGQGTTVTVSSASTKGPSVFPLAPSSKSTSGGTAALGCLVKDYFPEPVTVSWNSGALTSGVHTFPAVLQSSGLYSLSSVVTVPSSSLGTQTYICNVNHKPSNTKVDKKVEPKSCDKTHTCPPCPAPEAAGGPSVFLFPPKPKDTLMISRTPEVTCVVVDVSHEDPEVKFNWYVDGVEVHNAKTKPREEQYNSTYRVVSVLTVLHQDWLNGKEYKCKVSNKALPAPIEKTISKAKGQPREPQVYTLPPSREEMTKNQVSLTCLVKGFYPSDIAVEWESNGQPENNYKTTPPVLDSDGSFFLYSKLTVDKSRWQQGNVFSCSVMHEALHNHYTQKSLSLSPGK
light: DIVLTQSPDSLAVSLGERATINCRASESVDYYGISSMHWFQQKPGQPPKLLIYRASNLESGIPARFSGSGSRTDFTLTISSLQAEDVAVYYCQQANKDPYTFGGGTKVEIKRTVAAPSVFIFPPSDEQLKSGTASVVCLLNNFYPREAKVQWKVDNALQSGNSQESVTEQDSKDSTYSLSSTLTLSKADYEKHKVYACEVTHQGLSSPVTKSFNRGEC
notes: VHH fused by a (G4S)2 linker to the N-terminus of the heavy chain; IgG1 L234A/L235A
- IL-8 secretion (A431), IL-36α, IC50 [1]: 0.54 nM
- IL-8 secretion (A431), IL-36β, IC50 [1]: 0.2 nM
- IL-8 secretion (A431), IL-36γ, IC50 [1]: 0.06 nM
- proliferation of BaF3-mIL-23R cells induced by IL-23, IC50 [2]: 0.39 nM
- DB-STAT3-Luc2 reporter gene system IC50 [3]: 7 nM
- EC50 [4]: 1.21 nM
- EC50 [5]: 1.28 nM
- Maximum MFI [5]: 11600 MFI
- Kd [6]: 0.023 nM
- koff [6]: 5.97e-05 s⁻¹
- kon [6]: 2.6e+06 M⁻¹ s⁻¹
- Kd [7]: 6.47 nM
- koff [7]: 0.000123 s⁻¹
- kon [7]: 19100 M⁻¹ s⁻¹

B2: IL-36R-IL-23-02 (anti-IL-36R and anti-IL-23 bispecific antibody, VHH162_Hu11 on Hu29-19, Structure A) (bispecific antibody, human IgG1, kappa, L234A L235A)
heavy: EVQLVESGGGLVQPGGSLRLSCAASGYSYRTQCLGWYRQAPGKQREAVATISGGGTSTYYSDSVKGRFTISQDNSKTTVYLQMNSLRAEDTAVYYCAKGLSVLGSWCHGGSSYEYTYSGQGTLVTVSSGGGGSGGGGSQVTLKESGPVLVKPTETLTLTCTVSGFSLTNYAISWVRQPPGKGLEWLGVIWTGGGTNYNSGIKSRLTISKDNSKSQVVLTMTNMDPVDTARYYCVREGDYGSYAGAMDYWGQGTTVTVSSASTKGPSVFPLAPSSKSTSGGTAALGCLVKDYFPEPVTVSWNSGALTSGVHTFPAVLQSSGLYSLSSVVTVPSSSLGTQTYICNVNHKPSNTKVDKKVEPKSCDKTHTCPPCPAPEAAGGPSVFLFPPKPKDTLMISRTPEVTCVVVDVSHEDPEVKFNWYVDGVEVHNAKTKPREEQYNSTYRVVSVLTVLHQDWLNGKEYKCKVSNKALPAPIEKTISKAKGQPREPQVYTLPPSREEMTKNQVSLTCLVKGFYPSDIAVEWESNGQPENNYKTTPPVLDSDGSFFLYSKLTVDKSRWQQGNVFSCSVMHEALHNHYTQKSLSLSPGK
light: DIVLTQSPDSLAVSLGERATINCRASESVDYYGISSMHWFQQKPGQPPKLLIYRASNLESGIPARFSGSGSRTDFTLTISSLQAEDVAVYYCQQANKDPYTFGGGTKVEIKRTVAAPSVFIFPPSDEQLKSGTASVVCLLNNFYPREAKVQWKVDNALQSGNSQESVTEQDSKDSTYSLSSTLTLSKADYEKHKVYACEVTHQGLSSPVTKSFNRGEC
notes: VHH fused by a (G4S)2 linker to the N-terminus of the heavy chain; IgG1 L234A/L235A; also called IL-36R-1L-23-02
- IL-8 secretion (A431), IL-36α, IC50 [1]: 1.63 nM
- IL-8 secretion (A431), IL-36β, IC50 [1]: 0.74 nM
- IL-8 secretion (A431), IL-36γ, IC50 [1]: 0.21 nM
- proliferation of BaF3-mIL-23R cells induced by IL-23, IC50 [8]: 0.5 nM
- DB-STAT3-Luc2 reporter gene system IC50 [3]: 8.8 nM
- EC50 [4]: 0.49 nM
- EC50 [5]: 1.13 nM
- Maximum MFI [5]: 11400 MFI
- Kd [6]: 0.0235 nM
- koff [6]: 6.83e-05 s⁻¹
- kon [6]: 2.9e+06 M⁻¹ s⁻¹
- Kd [7]: 15.9 nM
- koff [7]: 0.000146 s⁻¹
- kon [7]: 9210 M⁻¹ s⁻¹

B3: VHH162 (camelid nanobody clone from the phage library) (VHH)
VHH: DVQLVESGGGSVQPGGSLRLSCAASGYSYRTQCLGWYRQAPGKQREAVATISGGGTSTYYSDSVKGRFTISQDNARTTVYLSLTSLKPEDTATYYCAAGLSVLGSWCHGGSSYEYTYSGQGTQVTVSS
notes: As identified by panning and clone ELISA (phage or clone format not described)
- binding result [9]: binds

B4: Hu29-19 (humanized anti-IL-23 antibody, hAb29VH5 and hAb29VL3) (antibody, human IgG1, kappa, L234A L235A, V domains shown)
VH: QVTLKESGPVLVKPTETLTLTCTVSGFSLTNYAISWVRQPPGKGLEWLGVIWTGGGTNYNSGIKSRLTISKDNSKSQVVLTMTNMDPVDTARYYCVREGDYGSYAGAMDYWGQGTTVTVSS
VL: DIVLTQSPDSLAVSLGERATINCRASESVDYYGISSMHWFQQKPGQPPKLLIYRASNLESGIPARFSGSGSRTDFTLTISSLQAEDVAVYYCQQANKDPYTFGGGTKVEIKR
- Activity in inhibiting proliferation of BaF3-IL-23R cells (IC50, nM) [10]: 0.194 nM
- IC50 for inhibiting IL-17 secretion [11]: 0.0177 nM
- proliferation of BaF3-mIL-23R cells induced by IL-23, IC50 [2]: 0.36 nM
- proliferation of BaF3-mIL-23R cells induced by IL-23, IC50 [8]: 0.43 nM
- DB-STAT3-Luc2 reporter gene system IC50 [3]: 5.1 nM
- EC50 [4]: 0.55 nM
- EC50 [12]: 1.11 nM
- Kd [13]: 0.0151 nM
- koff [13]: 4.08e-05 s⁻¹
- kon [13]: 2.71e+06 M⁻¹ s⁻¹
- Kd [6]: 0.0106 nM
- koff [6]: 6.26e-05 s⁻¹
- kon [6]: 5.93e+06 M⁻¹ s⁻¹
- IC50 [14]: 0.478 nM
